Some targets named below: EGFR(T790M)(h) (human) (UniProt P00533); Lck(h) activated (human) (UniProt P06239); MSK2(h) (human) (UniProt O75676); MSSK1(h) (human) (UniProt Q9UPE1); MST3(h) (human) (UniProt Q9Y6E0); Met(Y1248H)(h) (human) (UniProt P08581); PDGFRα(h) (human) (UniProt P16234); PKCβII(h) (human) (UniProt P05771); SRPK2(h) (human) (UniProt P78362).
Assay in all cases: cell-based or functional assay
The target in another test is T1, IKKα(h) (human) (UniProt O15111).
T1 sequence (looked up): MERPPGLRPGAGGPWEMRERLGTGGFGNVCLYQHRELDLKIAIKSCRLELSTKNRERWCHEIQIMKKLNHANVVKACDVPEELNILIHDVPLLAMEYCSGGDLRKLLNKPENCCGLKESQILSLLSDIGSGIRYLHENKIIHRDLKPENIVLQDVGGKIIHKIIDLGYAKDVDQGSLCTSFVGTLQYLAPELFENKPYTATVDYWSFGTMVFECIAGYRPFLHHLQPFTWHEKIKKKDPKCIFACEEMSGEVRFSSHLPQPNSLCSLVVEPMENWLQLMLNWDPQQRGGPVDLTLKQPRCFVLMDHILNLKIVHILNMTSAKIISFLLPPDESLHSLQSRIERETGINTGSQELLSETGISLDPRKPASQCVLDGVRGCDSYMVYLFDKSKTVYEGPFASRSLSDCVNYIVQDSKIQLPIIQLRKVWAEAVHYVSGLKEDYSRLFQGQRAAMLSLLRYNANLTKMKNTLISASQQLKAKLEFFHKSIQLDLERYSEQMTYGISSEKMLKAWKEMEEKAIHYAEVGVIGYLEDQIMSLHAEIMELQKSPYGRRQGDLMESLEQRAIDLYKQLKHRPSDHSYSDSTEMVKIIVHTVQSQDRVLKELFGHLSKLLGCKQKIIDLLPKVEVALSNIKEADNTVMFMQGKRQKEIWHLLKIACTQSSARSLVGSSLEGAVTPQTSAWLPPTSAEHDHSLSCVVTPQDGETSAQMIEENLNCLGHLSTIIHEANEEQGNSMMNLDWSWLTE

The target of a further test is T2, Ret(V804M)(h) (human) (UniProt P07949).
T2 sequence (looked up): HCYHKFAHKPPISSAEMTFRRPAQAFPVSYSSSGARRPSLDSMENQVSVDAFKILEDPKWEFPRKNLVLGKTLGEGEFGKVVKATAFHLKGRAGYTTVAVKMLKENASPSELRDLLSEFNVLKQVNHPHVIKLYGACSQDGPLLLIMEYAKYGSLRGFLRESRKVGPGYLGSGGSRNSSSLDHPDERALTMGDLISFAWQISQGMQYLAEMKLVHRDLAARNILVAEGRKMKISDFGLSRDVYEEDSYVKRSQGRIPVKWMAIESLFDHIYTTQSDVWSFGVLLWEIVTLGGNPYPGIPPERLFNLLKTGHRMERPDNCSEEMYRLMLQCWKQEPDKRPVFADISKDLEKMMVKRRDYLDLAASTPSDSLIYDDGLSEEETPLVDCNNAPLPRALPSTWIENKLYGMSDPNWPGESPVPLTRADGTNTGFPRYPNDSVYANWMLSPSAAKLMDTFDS

A further test deals with T3, Txk(h) (human) (UniProt P42681).
T3 sequence (looked up): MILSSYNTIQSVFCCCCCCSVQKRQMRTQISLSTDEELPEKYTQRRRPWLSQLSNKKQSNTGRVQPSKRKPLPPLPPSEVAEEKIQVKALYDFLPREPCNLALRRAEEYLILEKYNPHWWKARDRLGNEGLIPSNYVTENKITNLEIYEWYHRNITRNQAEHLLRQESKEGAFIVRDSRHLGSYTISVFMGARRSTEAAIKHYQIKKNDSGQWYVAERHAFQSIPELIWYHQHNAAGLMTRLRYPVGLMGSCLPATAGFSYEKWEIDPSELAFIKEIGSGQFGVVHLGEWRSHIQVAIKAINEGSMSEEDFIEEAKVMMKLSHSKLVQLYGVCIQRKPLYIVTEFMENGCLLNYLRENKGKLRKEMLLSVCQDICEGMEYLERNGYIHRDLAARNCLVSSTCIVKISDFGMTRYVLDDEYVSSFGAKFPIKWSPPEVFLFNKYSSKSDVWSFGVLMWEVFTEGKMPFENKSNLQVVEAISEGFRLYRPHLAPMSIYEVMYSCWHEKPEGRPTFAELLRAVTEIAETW

The next test has as its target T4, ULK3(h) (human) (UniProt Q6PHR2).
T4 sequence (looked up): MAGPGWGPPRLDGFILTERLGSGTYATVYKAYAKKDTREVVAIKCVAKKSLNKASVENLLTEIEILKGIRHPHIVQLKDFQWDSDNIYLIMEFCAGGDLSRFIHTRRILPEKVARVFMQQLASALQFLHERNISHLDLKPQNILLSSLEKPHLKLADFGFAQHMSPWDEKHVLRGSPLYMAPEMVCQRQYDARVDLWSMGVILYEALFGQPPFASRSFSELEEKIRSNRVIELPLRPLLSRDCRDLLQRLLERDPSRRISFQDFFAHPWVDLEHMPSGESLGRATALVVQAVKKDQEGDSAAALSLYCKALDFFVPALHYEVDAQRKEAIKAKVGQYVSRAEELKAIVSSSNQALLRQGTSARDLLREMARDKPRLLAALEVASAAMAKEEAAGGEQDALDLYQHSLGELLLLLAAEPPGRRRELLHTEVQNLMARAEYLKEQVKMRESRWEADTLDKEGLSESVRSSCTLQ

Chain of MSK2(h) (human) (O75676 whole entry): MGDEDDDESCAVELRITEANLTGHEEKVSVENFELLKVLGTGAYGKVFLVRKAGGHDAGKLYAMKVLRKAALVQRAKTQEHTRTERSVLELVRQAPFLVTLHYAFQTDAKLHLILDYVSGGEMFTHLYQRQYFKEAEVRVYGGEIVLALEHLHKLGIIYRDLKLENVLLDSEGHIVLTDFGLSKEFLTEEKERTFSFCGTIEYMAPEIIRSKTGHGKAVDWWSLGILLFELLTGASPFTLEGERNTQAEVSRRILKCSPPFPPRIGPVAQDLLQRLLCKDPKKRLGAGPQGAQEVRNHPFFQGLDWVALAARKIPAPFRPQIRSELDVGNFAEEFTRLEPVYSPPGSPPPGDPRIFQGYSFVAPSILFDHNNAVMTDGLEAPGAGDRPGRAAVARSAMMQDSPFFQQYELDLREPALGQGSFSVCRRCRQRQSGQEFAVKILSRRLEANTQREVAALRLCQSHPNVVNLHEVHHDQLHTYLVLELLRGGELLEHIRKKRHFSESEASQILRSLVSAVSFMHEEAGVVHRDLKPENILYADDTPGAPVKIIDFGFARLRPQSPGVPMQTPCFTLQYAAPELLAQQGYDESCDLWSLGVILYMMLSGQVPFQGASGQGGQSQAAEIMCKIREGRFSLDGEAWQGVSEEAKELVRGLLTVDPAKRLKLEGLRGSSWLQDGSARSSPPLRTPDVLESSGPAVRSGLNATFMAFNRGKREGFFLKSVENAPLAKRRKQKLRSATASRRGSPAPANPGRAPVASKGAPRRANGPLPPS
Chain of MST3(h) (human) (Q9Y6E0 whole entry): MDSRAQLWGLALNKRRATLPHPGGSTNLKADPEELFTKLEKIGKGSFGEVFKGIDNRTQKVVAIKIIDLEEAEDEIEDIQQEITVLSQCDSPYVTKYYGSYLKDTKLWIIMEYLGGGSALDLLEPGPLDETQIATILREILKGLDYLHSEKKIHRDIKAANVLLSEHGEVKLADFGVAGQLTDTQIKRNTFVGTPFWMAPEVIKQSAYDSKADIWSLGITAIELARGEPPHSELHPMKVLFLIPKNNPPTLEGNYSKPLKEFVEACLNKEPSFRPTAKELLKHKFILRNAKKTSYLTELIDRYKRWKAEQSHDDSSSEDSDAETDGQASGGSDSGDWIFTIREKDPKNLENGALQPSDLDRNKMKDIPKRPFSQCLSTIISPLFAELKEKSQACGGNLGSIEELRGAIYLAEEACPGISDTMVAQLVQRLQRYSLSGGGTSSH
Chain of MSSK1(h) (human) (Q9UPE1 whole entry): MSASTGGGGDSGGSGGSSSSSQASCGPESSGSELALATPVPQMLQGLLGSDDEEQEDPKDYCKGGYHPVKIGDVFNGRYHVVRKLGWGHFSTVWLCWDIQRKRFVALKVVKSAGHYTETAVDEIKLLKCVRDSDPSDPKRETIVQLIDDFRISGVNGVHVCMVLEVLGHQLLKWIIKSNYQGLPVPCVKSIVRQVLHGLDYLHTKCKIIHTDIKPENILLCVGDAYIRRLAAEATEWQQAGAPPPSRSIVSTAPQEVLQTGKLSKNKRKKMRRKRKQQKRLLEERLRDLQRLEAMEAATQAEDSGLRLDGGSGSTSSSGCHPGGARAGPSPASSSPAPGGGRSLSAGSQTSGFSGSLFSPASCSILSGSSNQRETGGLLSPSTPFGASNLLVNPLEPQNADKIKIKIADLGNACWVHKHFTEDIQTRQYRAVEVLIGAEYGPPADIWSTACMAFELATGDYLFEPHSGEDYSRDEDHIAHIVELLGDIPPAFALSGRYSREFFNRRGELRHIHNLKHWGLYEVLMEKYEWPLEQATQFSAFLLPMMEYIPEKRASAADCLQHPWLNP
Chain of PKCβII(h) (human) (P05771 other isoform, or with tags, fused parts or gaps): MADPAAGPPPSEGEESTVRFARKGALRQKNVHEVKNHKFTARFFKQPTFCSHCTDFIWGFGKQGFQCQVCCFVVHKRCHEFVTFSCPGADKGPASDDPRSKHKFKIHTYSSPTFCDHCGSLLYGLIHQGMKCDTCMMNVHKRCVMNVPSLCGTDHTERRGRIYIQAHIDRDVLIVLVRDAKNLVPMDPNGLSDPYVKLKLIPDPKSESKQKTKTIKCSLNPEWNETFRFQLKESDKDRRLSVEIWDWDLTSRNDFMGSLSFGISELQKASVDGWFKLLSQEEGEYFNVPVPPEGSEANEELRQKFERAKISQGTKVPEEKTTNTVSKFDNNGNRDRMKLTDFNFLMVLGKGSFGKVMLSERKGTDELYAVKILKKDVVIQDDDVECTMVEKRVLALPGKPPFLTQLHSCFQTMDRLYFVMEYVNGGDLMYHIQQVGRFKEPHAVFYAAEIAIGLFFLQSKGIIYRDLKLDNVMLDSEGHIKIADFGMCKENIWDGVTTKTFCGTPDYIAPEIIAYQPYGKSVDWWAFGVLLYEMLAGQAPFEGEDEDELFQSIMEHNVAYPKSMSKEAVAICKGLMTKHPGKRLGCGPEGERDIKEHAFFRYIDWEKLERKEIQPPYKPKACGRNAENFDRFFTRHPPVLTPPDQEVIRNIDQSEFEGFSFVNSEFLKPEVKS
Chain of SRPK2(h) (human) (P78362 whole entry): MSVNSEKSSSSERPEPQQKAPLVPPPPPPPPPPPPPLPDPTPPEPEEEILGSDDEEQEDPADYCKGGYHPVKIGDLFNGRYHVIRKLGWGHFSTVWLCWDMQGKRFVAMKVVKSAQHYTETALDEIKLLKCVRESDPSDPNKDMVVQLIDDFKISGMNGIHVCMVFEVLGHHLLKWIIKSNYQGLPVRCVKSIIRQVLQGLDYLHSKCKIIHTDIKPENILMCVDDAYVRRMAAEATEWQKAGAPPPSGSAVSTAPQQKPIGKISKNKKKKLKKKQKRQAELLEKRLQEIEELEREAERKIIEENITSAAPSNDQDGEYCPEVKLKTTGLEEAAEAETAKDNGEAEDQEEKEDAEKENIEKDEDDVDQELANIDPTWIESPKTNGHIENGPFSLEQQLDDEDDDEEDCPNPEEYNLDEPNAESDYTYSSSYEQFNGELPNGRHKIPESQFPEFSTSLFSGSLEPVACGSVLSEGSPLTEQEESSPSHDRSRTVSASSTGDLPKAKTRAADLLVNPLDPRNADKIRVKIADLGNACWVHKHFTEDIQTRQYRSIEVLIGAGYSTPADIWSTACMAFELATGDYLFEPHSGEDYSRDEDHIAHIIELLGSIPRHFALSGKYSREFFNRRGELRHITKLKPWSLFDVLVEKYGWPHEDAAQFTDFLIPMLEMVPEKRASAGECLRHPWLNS
Chain of Lck(h) activated (human) (P06239 whole entry): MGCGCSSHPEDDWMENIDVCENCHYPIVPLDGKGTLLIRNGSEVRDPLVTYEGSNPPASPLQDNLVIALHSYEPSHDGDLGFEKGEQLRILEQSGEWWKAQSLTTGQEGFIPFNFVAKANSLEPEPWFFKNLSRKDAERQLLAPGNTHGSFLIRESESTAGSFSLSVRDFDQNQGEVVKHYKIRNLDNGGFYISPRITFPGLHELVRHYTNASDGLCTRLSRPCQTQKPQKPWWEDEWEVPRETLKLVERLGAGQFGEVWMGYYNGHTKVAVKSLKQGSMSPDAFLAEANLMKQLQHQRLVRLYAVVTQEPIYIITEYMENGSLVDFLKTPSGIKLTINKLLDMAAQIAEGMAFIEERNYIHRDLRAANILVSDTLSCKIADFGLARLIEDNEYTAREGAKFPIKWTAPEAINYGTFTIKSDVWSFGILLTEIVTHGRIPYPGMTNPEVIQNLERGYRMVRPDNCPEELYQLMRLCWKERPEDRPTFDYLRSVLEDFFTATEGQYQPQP
Chain of PDGFRα(h) (human) (P16234 550-1089 limits assumed): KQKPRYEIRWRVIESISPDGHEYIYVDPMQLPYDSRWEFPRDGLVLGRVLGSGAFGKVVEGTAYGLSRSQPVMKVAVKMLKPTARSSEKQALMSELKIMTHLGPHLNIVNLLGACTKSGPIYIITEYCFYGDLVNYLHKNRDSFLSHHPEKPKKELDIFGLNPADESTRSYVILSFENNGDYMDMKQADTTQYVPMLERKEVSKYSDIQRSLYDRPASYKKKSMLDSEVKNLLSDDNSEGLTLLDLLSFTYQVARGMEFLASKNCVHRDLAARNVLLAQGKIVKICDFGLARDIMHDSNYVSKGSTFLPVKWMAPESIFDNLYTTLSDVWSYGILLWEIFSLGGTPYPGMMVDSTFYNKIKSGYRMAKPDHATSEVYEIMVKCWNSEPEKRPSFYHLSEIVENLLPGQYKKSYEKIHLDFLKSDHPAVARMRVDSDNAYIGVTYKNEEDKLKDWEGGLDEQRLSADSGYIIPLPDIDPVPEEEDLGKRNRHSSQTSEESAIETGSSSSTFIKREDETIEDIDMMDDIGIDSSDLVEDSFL

With MMI-0500 (peptide), the % activity, 100 µM with EGFR(T790M)(h) (human) is 70%; with IKKα(h) (human), 50%; with Lck(h) activated (human) it was 76%; with MSK2(h) (human) it was 14%; with MSSK1(h) (human), 22%; with MST3(h) (human), 4%. The % activity, 100 µM in the test with Met(Y1248H)(h) (human) turned out to be 126%; with PDGFRα(h) (human), 40%; with PKCβII(h) (human), 3%; with Ret(V804M)(h) (human) it was 36%; with SRPK2(h) (human), 80%; in the test with Txk(h) (human), 10%. Also, in the test with ULK3(h) (human), the % activity, 100 µM was 177%.

Source of the values: patent US20140072613A1, “Compositions and Methods for Treating Cutaneous Scarring” (priority 2012, published 2014).
